Measured values: patent US20140356376

Key:
[1] = system: thioFAB 4497 MP-LAFAA-QSY7
[2] = system: thio-S4497 HC v1-MP-LAFG-PABC-(piperazinoBOR) AAC-193
[3] = system: thioFAB 4497 MP-LAFGA-QSY7

staphopain B
100%: Percent cleavage pH 7.2 [1] | Percent cleavage pH 5 [2] | Percent cleavage pH 7.2 [2] | Percent cleavage pH 7.2 [3]
